What all share (settings): both partners purified
In test [1] the target is Biotinylated SARS-CoV-2 S protein RBD with a C-terminal AviTag (SARS-CoV-2, canonical (Wuhan-Hu-1) …, UniProt P0DTC2, biotinylated). Briefly: BLI. Background: In BLI a coated tip is dipped into the sample, and binding shifts an interference pattern.
Test [2] deals with SARS-CoV-2 Receptor Binding Domain (RBD) (SARS-CoV-2, UniProt P0DTC2). Briefly: SPR. A general note: Surface plasmon resonance follows binding to a sensor surface in real time, without labels.
Test [3] has as its target SARS-CoV-2 RBD (cross-reactivity experiments) (SARS-CoV-2, UniProt P0DTC2). Briefly: ELISA. On the technique in general: In an ELISA, binding on a coated surface is turned into a signal by an enzyme label.
In test [4] the target is T1, Horse radish peroxidase conjugated RBD (GenScript SARS-CoV-2 Neutralization Antibody Detection Kit) (SARS-CoV-2, UniProt P0DTC2).
T1 construct: source: bought: GenScript (kit L00847)
The experiment in a line: ELISA.

B1: VHH72 (VHH)
VHH: QVQLQESGGGLVQAGGSLRLSCAASGRTFSEYAMGWFRQAPGKEREFVATISWSGGSTYYTDSVKGRFTISRDNAKNTVYLQMNSLKPDDTAVYYCAAAGLGTVVSEWDYDYDYWGQGTQVTVSS
Turning to B1, the binding result in test [1] was “binds”.

B2: NIH-CoVnb-112 (VHH)
VHH: DVQLQESGGGLVQPGGSLRLSCAASGLTLDYYAIGWFRQAPGKEREGVSCISSSDGSTYYADSVKGRFTTSRDNAKNTVYLQMNSLKPEDTAVYYCAAVPSTYYSGTYYYTCHPGGMDYWGKGTQVTVSS
notes: also called lead nanobody candidate; anti-SARS-CoV-2 RBD nanobody; source: E. coli BL21 (DE3), periplasm by osmotic shock, purified (HisTrap, Superdex 75)
In turn, B2 displayed a dissociation constant (Kd) in test [2] of 2.1 nM. For the same molecule, the binding result in test [3] and in test [4] was “binds” each time.

In general, Kd refers to a measure of binding affinity in units of concentration. A lower Kd goes with a tighter complex.

For the origin of these results see article PMC7755911 (Scientific Reports, 2020).
